Measurements taken from doi:10.1101/2023.01.20.524748.

Target: B.1.1.529 (BA.1) S1 + S2 Trimer-His Recombinant Protein (SARS-CoV-2) (UniProt P0DTC2)
Test: cryo-EM structure

Q: “B.1.1.529 (BA.1) S1 + S2 Trimer-His Recombinant Protein (from UniProt P0DTC2 324-533) (natural protein)” was tested. Which stoichiometry N did it give?
A: 3
